Conditions: Mus musculus, 25 °C, CD, whole UniProt chain shown
[1] = pH 4, Urea, Sodium acetate 10 mM

B1: Interleukin-6 wild type, P08505 (protein)
chain: MKFLSARDFHPVAFLGLMLVTTTAFPTSQVRRGDFTEDTTPNRPVYTTSQVGGLITHVLWEIVEMRKELCNGNSDCMNNDDALAENNLKLPEIQRNDGCYQTGYNQEICLLKISSGLLEYHSYLEYMKNNLKDNKKDKARVLQRDTETLIHIFNQEVKDLHKIVLPTPISNALLTDKLESQKEWLRTKTIQFILKSLEEFLKVTLRSTRQT
With B1 the denaturant m value [1] was 3 kcal/mol/M, the “denaturant midpoint (higher = more stable)” value (“denaturant midpoint” for short) [1] was 3.59 M and the unfolding free energy [1] was 10.8 kcal/mol. For the same protein, the denaturant m value (pH 7.4, GdnHCl, Tris-HCl 10 mM) was 1 kcal/mol/M, the “denaturant midpoint” value (pH 7.4, GdnHCl, Tris-HCl 10 mM) was 1.9 M and the unfolding free energy (pH 7.4, GdnHCl, Tris-HCl 10 mM) was 1.9 kcal/mol. The denaturant m value (pH 7.4, Urea, Tris-HCl 10 mM) was 1.1 kcal/mol/M, the “denaturant midpoint” value (pH 7.4, Urea, Tris-HCl 10 mM) was 5.2 M and the unfolding free energy (pH 7.4, Urea, Tris-HCl 10 mM) was 5.7 kcal/mol.
